The source of these data is PMC2912409.

By Kd is commonly meant the concentration at which binding is half-saturated.

Among the targets are DB_H196A (human, UniProt P03372 176-250, H196A); DB_R211A (human, UniProt P03372 176-250, R211A); DB_Y197A (human, UniProt P03372 176-250, Y197A); DB_E203A (human, UniProt P03372 176-250, E203A); DB_S193A (human, UniProt P03372 176-250, S193A); DB_D190A (human, UniProt P03372 176-250, D190A); DB_K206A (human, UniProt P03372 176-250, K206A); DB_AA (human, UniProt P03372 176-250, H196A;E203A); DB_S201A (human, UniProt P03372 176-250, S201A); DB_K210A (human, UniProt P03372 176-250, K210A).

Holding throughout (assay): ITC

Chain of DB_E203A (P03372 176-250 E203A): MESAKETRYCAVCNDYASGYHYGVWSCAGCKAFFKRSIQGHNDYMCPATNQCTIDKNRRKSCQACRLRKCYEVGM
Chain of DB_S201A (P03372 176-250 S201A): as the sequence (P03372 176-250 E203A) above, with S26A, A28E counted along it
Chain of DB_H196A (P03372 176-250 H196A): as the sequence (P03372 176-250 E203A) above, with H21A, A28E counted along it
Chain of DB_K210A (P03372 176-250 K210A): as the sequence (P03372 176-250 E203A) above, with A28E, K35A counted along it
Chain of DB_AA (P03372 176-250 H196A/E203A): as the sequence (P03372 176-250 E203A) above, with H21A counted along it
Chain of DB_D190A (P03372 176-250 D190A): as the sequence (P03372 176-250 E203A) above, with D15A, A28E counted along it
Chain of DB_Y197A (P03372 176-250 Y197A): as the sequence (P03372 176-250 E203A) above, with Y22A, A28E counted along it
Chain of DB_R211A (P03372 176-250 R211A): as the sequence (P03372 176-250 E203A) above, with A28E, R36A counted along it
Chain of DB_K206A (P03372 176-250 K206A): as the sequence (P03372 176-250 E203A) above, with A28E, K31A counted along it
Chain of DB_S193A (P03372 176-250 S193A): as the sequence (P03372 176-250 E203A) above, with S18A, A28E counted along it

B1: ERE duplex (dsDNA)
DNA 1: CCCAGGTCACAGTGACCTGCG
DNA 2: CGCAGGTCACTGTGACCTGGG
Turning to B1, the Kd came to 190 ± 24 nM with DB_H196A; 745 ± 76 nM with DB_R211A; 316 ± 7 nM in the series with DB_Y197A; 172 ± 48 nM with DB_E203A; 102 ± 10 nM with DB_S193A; 67 ± 6 nM with DB_D190A. In addition, the dissociation constant Kd amounted to 313 ± 6 nM with DB_K206A, 387 ± 90 nM with DB_AA, 119 ± 9 nM with DB_S201A and 326 ± 11 nM with DB_K210A.
